In patent CN118184778A one finds 最小反应极限 data, which are given here for 1 molecule.

The experiment concerns the target 重组AD7c-NTP蛋白 (human). Briefly: indirect ELISA; plate coated with 1 μg/mL recombinant AD7c-NTP, antibody serially diluted, HRP goat anti-mouse IgG, OD450. (In general: An ELISA detects its analyte on a solid surface through an enzyme-linked reagent.)

Sequence of 重组AD7c-NTP蛋白 (human) (chain, as listed by the source): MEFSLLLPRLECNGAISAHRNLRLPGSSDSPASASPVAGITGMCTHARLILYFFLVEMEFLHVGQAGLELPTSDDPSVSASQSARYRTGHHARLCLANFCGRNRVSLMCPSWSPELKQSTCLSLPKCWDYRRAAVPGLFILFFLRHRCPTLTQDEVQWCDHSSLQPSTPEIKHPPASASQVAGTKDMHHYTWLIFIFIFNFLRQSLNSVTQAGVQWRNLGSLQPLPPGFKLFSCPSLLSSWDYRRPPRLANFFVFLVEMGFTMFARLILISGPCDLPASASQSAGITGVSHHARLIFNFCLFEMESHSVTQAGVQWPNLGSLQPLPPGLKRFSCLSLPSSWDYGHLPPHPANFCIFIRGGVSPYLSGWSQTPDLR

B1: 单克隆抗体1D9 (AD7c-NTP单克隆抗体A1) (antibody, V domains shown)
VH: DVQLQESGPGLVKPSQSLSLTCTVTDYSITSDYAWNWIRQFPGNKLEWMGYISYSGSTNYNPSLKSRFSITRDTSKNQFFLQLNSVTTEDTATYYCAGSELYYGYHYVMDYWGQGTSVTVSS
VL: ENVLTQSPAIMSASLGQKVTMTCSASSSVSSSYLHWYQQRSGASPKPLIHRTSNLASGVPARFSGSGSGTSYSLTISSVEAEDDATYYCQQWSGYPLTFGAGTKLELK
Turning to B1, the 最小反应极限 stood at 9.77 ng/mL.
